Source: patent US20060241020A1, “Protein tyrosine phosphatase inhibitors” (Applied Research Systems ARS Holdings N.V., priority 2002, published 2006)
Where a chain is given by its changes, count along the chain named. Entries after “also recorded” stand apart in the source; their conditions may differ. Square brackets hold non-standard residues; d marks the D form. Ends that are not written are not given here. pY = N[C@@H](Cc1ccc(OP(=O)(O)O)cc1)C(=O)O

Key:
SHP1 = SHP1 (Homo sapiens, UniProt P29350); details: reference (40); cited from earlier work
[1] = molecular target: T1, PTP-1B DA (trapping mutant) (Homo sapiens, UniProt P18031, D181A); test: SPOT analysis, membrane peptides probed with radiolabeled PTP; assay type: binding; details: for SPOT binding to PTP1B trapping mutant, double phosphorylated peptide: two phosphorylated Tyr, compared with single ones; for SPOT binding to PTP1B trapping mutant: 15-mer peptides with phospho-Tyr on membrane
T1 construct: specific primers corresponding to the beginning and the end of the catalytic domain of every PTPs were used; made in house; host or cells: Escherichia coli BL21 (codon +)
T1 sequence (P18031 3-277 D181A limits assumed): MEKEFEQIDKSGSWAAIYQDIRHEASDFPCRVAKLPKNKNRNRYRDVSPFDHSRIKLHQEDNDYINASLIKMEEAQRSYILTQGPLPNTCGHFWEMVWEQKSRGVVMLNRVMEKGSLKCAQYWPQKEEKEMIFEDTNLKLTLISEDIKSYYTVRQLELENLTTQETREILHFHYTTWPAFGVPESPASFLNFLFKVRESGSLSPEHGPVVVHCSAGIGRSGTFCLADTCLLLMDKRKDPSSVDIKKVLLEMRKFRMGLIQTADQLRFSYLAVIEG
Method: (§1) Labelling of GST-PTP for the SPOT analysis was performed as follows: 2 to 5 μg of GST fusion proteins were bound to glutathion-sepharose beads (Amersham Pharmacia Biotech) at 4° C. After washes GST fusion proteins were radiolabeled by 50 units of protein kinase from bovine heart (Sigma) in presence of 35 μCi of (γ-32P) ATP in PKA buffer (20 mM Tris pH 7.5, 100 mM NaCl, 12 mM MgCl2, 1 mM DTT) for 30 minutes on ices. After washes, fusion proteins were eluted from beads by 10 mM free glutathione in 50 mM Tris, pH 8.0 (28).
(§2) Peptides were manually synthesized on derivatized cellulose membrane provided by Sigma-Genosys, which also provided the 20 Fmoc-amino acids active esters. Fmoc-phosphotyrosines from Novabiochem (#04-12-1156) were incorporated in presence of the coupling reagent, N,N′-Diisopropylcarbodiimide (DIC; Sigma) and hydroxybenzotriale (HOBt; Fluka; Espanel et al., submitted).
(§3) Membranes were blocked (at least 2 hours) and probed at 4° C. in Western wash buffer (10 mM Tris, pH 7.4, 0.1% Triton X-100 and 150 mM NaCl)+SPOT blocking buffer (Sigma-Genosys). After 2 hours, membranes were washed several times in Western wash buffer and were autoradiographed.

PTP-Sap1 R88N = test: as above; assay type: binding; details: 15-mer peptides with phosphotyrosine on membrane
Method: as §1, §2, §3

PTP1B trapping mutant [2] = molecular target: T2, PTP1B trapping mutant (Homo sapiens, UniProt P18031, D181A); test: ELISA of phosphorylated phage clones on coated GST-PTP; assay type: binding; details: PTP1B selected phage clones, src-phosphorylated
T2 construct: These two restriction sites were used to clone the catalytic domain in frame into a pGEX4TK vector (Pharmacia); made in house; host or cells: Escherichia coli BL21 (codon +)
T2 sequence (P18031 3-277 D181A limits assumed): T1 sequence (P18031 3-277 D181A limits assumed)
Method: (§4) Single clones were amplified as described previously. The coating was done with GST-PTP or GST alone in PBS (2 μg per well in a 96 well plate format). Phosphorylation of the phages was performed following the described protocol (with and without 3 U of src kinase, in order to check the phospho-Tyr specificity of the recognition, thus be sure that positives were catalytic domain specific as shown in (30)) and during this process, each well was blocked with a solution of 5% fat free powder milk in PBS. Wells were washed 5 times in PBS-Tween® 0.5% and phages were incubated with the PTP-GST or GST in 100 μl Trapping Buffer (20 mM Tris pH 7.5, 150 mM NaCl and 1 mM EDTA) for 2 hours at 4° C. Wells were extensively washed and blocked for 1 hour in PBS-5% Milk.

PTP1B trapping mutant [3] = molecular target: T2, PTP1B trapping mutant; test: Panning of the tyrosine-biased phage library and sequencing of trapped clones; assay type: binding; details: after three pannings, sequenced trapped phages
Method: (§5) Phages (10^9-10^10) were incubated for three hours at 30° C. in the kinase buffer (25 mM Tris pH7.5, 5 mM MgCl2, 2.5 mM MnCl2, 2.5 mM DTT and 1 mM ATP) in a total volume of 20 μl. […] Therefore, the total library was phosphorylated and passed through an antiPTyr column (Upstate). The bound phages were eluted with phenylphosphate, and the clones were passed twice again in the column. The amplified Tyrosine-carrying phages were then stocked at 4° C. in TE and used for the trapping experiment (see below). […] Furthermore, no sequences were found twice. […] This was checked following our phosphorylation protocol and using (γ-32P) ATP as a tracer.
(§6) Phages (10^8 to 10^9) were incubated in kinase buffer (20 mM Tris pH7.5, 5 mM MgCl2, 2.5 mM MnCl2, 1 mM ATP, 2.5 mM DTT and with or without 3 Units of src kinase) for 3 hours at 30° C. The p60src, purified from Baculovirus, was purchased from Upstate Biotech. Gluthation-Sepharose beads were pre-coated with 3 μg of either GST or PTP-GST for 4 hours at 4° C. in a solution of Trapping Buffer (20 mM Tris pH 7.5, 150 mM NaCl and 1 mM EDTA) with 1% BSA final. The phages were first pre-cleared using GST-beads for 30 minutes at 4° C., spun down and the supernatant was incubated with the coated PTP-GST for 1.5 hours at 4° C. with a constant shaking. Finally beads were spun down and washed several times (5 times for the first panning, then 10 times) with a solution of PBS with 0.25% Tween® final. Phages were eluted from PTP-GST by an acidic treatment (glycine buffer, pH 2.7) for 10 minutes at RT with a constant shaking, beads were spun down and phages were recovered in the supernatant. One tenth volume of a 1 M Tris pH 9.0 solution was added in order to restore the pH. Phages were finally titred in both fractions (bound and unbound) and the rest of the bound fraction was used to infect XL1 MRF′ Bacteria (Stratagene) following described procedures (24). The day after, cells were scraped and phages were amplified using helper phage M13K07 (Pharmacia) using the manufacturer's procedures.
(§7) When an increase in the number of trapped clones was observed, phages where purified as single clones and colony-PCR was performed using phage primers, forward: 5′ATG AAA AAG TCT TTA GTC CTC3′ and reverse: 5′CAG CTT GAT ACC GAT AGT TGC3′. The PCR products were then purified and sequenced using the same primers. Sequences were read in both direction using SeqmanII Software.

WT PTP1B = molecular target: T3, WT PTP1B (Homo sapiens, UniProt P18031); test: Dephosphorylation assay on GST-PEP constructs; assay type: biochemical; details: not shown
T3 construct: These two restriction sites were used to clone the catalytic domain in frame into a pGEX4TK vector (Pharmacia); GST (N); made in house; host or cells: Escherichia coli BL21 (codon +)
T3 sequence (P18031 3-277 limits assumed): T1 sequence (P18031 3-277 D181A limits assumed) with A179D
Method: PEP-GST constructs were prepared as follows: the primers used correspond to the pVIII capsid sequence of M13+two restriction sites (XhoI and NotI): 5′TATCTCGAGTCTTTCGCTGCTGAGGGT GA3′ for the sense and 5′ATAGCGGCCGCTTGCAGGGAGTCAAAGGCC G3′ for the antisense. The DNA of the phage was directly amplified by adding 10^9 phages to the PCR mix. After PCR using Herculase Polymerase (Stratagene), the DNA fragments (100 bp) were purified using Microcon® PCR (Millipore) and gel extraction was performed with Utrafree®-DA (Millipore). The cloning and the protein purification were finally accomplished following the same protocol as for the PTPs, with the only difference that TKB1 (Stratagene) bacteria were transformed and a single colony was grown and induced for protein production and phosphorylation exactly as described by the manufacturer. Again, all constructs were checked by DNA sequencing before protein production.
100 ng of PEP-GST construct was incubated with 10 ng of PTP wild type in PTP buffer (50 mM Hepes pH 7.4, 0.05% Nonidet NP-40 and 1 mM DTT). The reaction was stopped by mixing equal volume aliquots with a solution of 50 mM vanadate at different laps of time. […]

Sap1 = molecular target: T4, Sap1 (Homo sapiens, UniProt Q9HD43); test: Km of example phosphopeptide substrates (Table IX summary); assay type: biochemical; details: phosphopeptide as Sap1 substrate
T4 sequence (Q9HD43 820-1079 limits assumed): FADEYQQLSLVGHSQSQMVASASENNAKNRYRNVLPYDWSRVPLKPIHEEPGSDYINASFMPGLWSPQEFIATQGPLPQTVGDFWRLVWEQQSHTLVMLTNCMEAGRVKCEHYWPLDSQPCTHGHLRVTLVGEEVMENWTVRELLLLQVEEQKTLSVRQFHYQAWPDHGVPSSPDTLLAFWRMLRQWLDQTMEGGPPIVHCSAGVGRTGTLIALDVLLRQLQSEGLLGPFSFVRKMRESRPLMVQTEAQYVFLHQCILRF

PTP-Sap1 [4] = molecular target: T5, PTP-Sap1 (Homo sapiens, UniProt Q9HD43, D986A); test: ELISA of phosphorylated phage clones on coated GST-PTP; assay type: binding; details: PTP-Sap1 selected phage clones, src-phosphorylated
T5 construct: These two restriction sites were used to clone the catalytic domain in frame into a pGEX4TK vector (Pharmacia); made in house; host or cells: Escherichia coli BL21 (codon +)
T5 sequence (Q9HD43 820-1079 D986A limits assumed): T4 sequence (Q9HD43 820-1079 limits assumed) with D167A
Method: as §4

PTP-Sap1 [5] = molecular target: T5, PTP-Sap1; test: Panning of the tyrosine-biased phage library and sequencing of trapped clones; assay type: binding; details: after three rounds, sequenced trapped phages
Method: as §5, §6, §7

PTP-Sap1DA = molecular target: T6, PTP-Sap1DA (Homo sapiens, UniProt Q9HD43, D986A); test: SPOT analysis, membrane peptides probed with radiolabeled PTP; assay type: binding
T6 construct: specific primers corresponding to the beginning and the end of the catalytic domain of every PTPs were used; made in house; host or cells: Escherichia coli BL21 (codon +)
T6 sequence (Q9HD43 820-1079 D986A limits assumed): T4 sequence (Q9HD43 820-1079 limits assumed) with D167A
Method: as §1, §2, §3

SHP1, sequence (P29350 whole entry): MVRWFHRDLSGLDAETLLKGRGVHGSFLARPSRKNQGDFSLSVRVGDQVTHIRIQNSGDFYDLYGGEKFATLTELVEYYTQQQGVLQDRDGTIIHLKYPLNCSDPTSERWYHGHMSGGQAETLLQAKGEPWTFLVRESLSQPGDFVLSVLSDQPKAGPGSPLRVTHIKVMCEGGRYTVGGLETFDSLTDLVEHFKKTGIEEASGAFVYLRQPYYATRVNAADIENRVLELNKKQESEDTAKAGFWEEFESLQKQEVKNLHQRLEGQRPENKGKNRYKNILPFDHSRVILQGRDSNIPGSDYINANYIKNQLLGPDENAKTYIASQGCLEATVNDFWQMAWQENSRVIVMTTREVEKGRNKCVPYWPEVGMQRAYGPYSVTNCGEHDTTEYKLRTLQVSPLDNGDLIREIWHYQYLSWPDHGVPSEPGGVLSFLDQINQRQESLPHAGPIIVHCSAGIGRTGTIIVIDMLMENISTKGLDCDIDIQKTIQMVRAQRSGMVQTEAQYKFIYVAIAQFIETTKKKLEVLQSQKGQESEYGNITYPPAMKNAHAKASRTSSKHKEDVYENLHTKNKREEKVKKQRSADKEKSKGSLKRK

O.O.O.O.O.O.O.O.O.O=C([O-])[C@@H]1[O][Sb]2([O-])([O][Sb]34([OH])[O][C@H]([C@H](O)CO)[C@H]([O]3)[C@H](C(=O)[O-])[O]4)[O][C@H]([C@H](O)CO)[C@@H]1[O]2.[Na+].[Na+].[Na+] [sodium stibogluconate]
Inhibition of SHP1 (SHP1): strongly inhibits

EFATpYEEYALMDPAK (EFAT[pY]EEYALMDPAK) [Clone 1b-12]
SPOT binding to PTP1B trapping mutant, double phosphorylated peptide [1]: did not seem to react as well as single ones

EFEPIpYNAYQVDPAK (EFEPI[pY]NAYQVDPAK) [Clone 1b-6]
SPOT binding to PTP1B trapping mutant [1]: All except two sequences (1b-6 and 1b11) were recognized

EFGATpYGVYTSDPAK (EFGAT[pY]GVYTSDPAK) [Sm-2]
SPOT binding to PTP-Sap1 R88N (PTP-Sap1 R88N): strongest signals

EFIpYGSFHQTADPAK (EFI[pY]GSFHQTADPAK) [Sm-15]
SPOT binding to PTP-Sap1 R88N (PTP-Sap1 R88N): strongest signals

EFLpYANVERSSDPAK (EFL[pY]ANVERSSDPAK) [Sm-8]
SPOT binding to PTP-Sap1 R88N (PTP-Sap1 R88N): did not bind | SPOT binding to PTP-Sap1 R88N (PTP-Sap1 R88N; listed as sm-8): not recognized

EFQSPVpYGNFADPAK (EFQSPV[pY]GNFADPAK) [Clone 1b-11]
SPOT binding to PTP1B trapping mutant [1]: All except two sequences (1b-6 and 1b11) were recognized

EFQpYZGEYTRGDPAK (EFQ[pY]XGEYTRGDPAK; not fully specified (residue 5)) [Clone 1b-4]
ELISA (PTP1B trapping mutant [2]): not found in ELISA | SPOT binding to PTP1B trapping mutant [1]: confirmed in SPOT; also recorded: best substrate in this assay | SPOT binding to PTP1B trapping mutant, double phosphorylated peptide [1]: binding became more efficient

EFpYATYGSAATDPAK (EF[pY]ATYGSAATDPAK) [Clone 1b-1]
Copy in the pool (PTP1B trapping mutant [3]): 4× | SPOT binding to PTP1B trapping mutant, double phosphorylated peptide [1]: did not seem to react as well as single ones | Dephosphorylation of displayed peptide (GST fusion) by WT PTP1B (WT PTP1B): can dephosphorylate the displayed peptide

EFpYGAFA/G (chain 1 EF[pY]GAFA; chain 2 EF[pY]GAFG)
Km (Sap1): 7 µM

EFpYGAYSNADLDPAK (EF[pY]GAYSNADLDPAK) [x5]
ELISA (PTP-Sap1 [4]): strongest | Copy in the pool (PTP-Sap1 [5]): 2X | SPOT binding to PTP-Sap1DA, doubly phosphorylated (PTP-Sap1DA; doubly phosphorylated sequence): weaker signal

EFpYGPVASDASDPAK (EF[pY]GPVASDASDPAK) [x58]
ELISA (PTP-Sap1 [4]): recognized in ELISA

EFpYGQFpYGPPQDPAK (EF[pY]GQF[pY]GPPQDPAK) [x2]
SPOT binding to PTP-Sap1DA (PTP-Sap1DA; 15-mer peptides with phosphotyrosine on membrane): comparable SPOT results for both phosphorylated Tyrosines

EFpYGQIGDHLVDPAK (EF[pY]GQIGDHLVDPAK) [Sm-11]
SPOT binding to PTP-Sap1 R88N (PTP-Sap1 R88N): strongest signals

EFpYGTFAPKPLDPAK (EF[pY]GTFAPKPLDPAK) [Clone 1b-13]
SPOT binding to PTP1B trapping mutant [1]: signal is weaker

EFpYGTFAQSAEDPAK (EF[pY]GTFAQSAEDPAK) [x9]
Copy in the pool (PTP-Sap1 [5]): 3X

EFpYGTYRGQDSDPAK (EF[pY]GTYRGQDSDPAK) [Clone 1b-14]
Copy in the pool (PTP1B trapping mutant [3]): 2×

EFpYNLYEGVMSDPAK (EF[pY]NLYEGVMSDPAK) [Clone 1b-9]
ELISA (PTP1B trapping mutant [2]): not found in ELISA | SPOT binding to PTP1B trapping mutant [1]: confirmed in SPOT
